Results taken from the supplement of paper PMC10567573.

B1: PKD2L1 (parent)
chain: SGPEAARAGGWVSGEEFYMLTRRV

Variants of: B1
Assay: protein stability index of a GFP-peptide fusion (GPS, HEK-293T) (PSI 1-6); higher = more stable
Conditions: c terminus: a fixed tail appended
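Note: lentivirally expressed fusions sorted by FACS into six bins by GFP to DsRed ratio, PSI derived from sequencing read proportions per bin multiplied by bin number.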

Protein stability index of substitutions, site by site:
E15: L 2.02, F 3.15, T 2.45, D 2.54, H 2.17, W 1.99, R 2.62, C 1.54, V 2.03, A 1.86, N 2.46, K 2.92, Y 1.65, Q 2.16, G 2.2, P 2.52, I 1.59, S 2.1, M 1.48
V24: I 1.96, C 2.08, W 2.14, N 2.66, G 2.48, T 2.98, M 1.71, S 2.67, K 3.63, A 1.97, F 1.71, Y 2.07, H 2.72, E 3.16, R 2.63, D 3.54, Q 3.01, P 2.81, L 1.98
M19: A 2.13, H 3.08, E 3.69, W 2.68, C 2.82, K 3.1, N 3.63, V 1.48, Q 3.38, L 3.28, Y 2.39, R 3.11, G 3.03, F 2.93, D 3.5, T 2.94, S 3.43, I 2.01, P 3.94
R22: D 3.43, T 1.33, L 3.52, S 2.55, E 3.26, Q 2.25, P 2.44, C 1.55, G 2.33, I 2.28, Y 2.41, N 2.81, W 1.72, H 1.96, K 2.04
E16: D 2.29, A 1.92, T 2.26, G 2.6, P 1.78, C 1.56, V 1.64, W 2.42, R 1.93, S 2.73, L 1.76, K 2.5, I 2.23, N 2.42, F 2.75, M 2.7, H 1.64, Y 2.02, Q 2.25
V12: W 2.28, M 2.25, K 2.47, L 2.6, I 2.2, R 2.86, S 3.38, P 2.31, T 2.31, Q 2.49, N 2.73, Y 1.96
F17: T 3.37, M 3.27, Q 4.05, E 4.26, A 4.1, G 4.13, R 3.68, K 3.39, S 3.58, N 3.89, L 2.85, H 3.33, I 2.67, D 4.59, Y 2.79, P 3.89, W 2.14, C 3.03, V 2.5
R23: M 1.84, Q 1.92, T 2.07, L 1.53, C 2.14, Y 2.44, S 2.97, E 2.84, A 1.85, V 2.16, P 2.62, G 2.93, K 2.45, N 2.5, H 2.05, D 3.49, W 2.87, F 2.06
G14: W 2.19, K 2.52, L 2.04, S 2.6, T 3, N 3.21, A 3.24, I 2.63, P 3.09, R 3.17, E 3.18, H 2.4, M 2.46, Y 2.08, F 1.76, D 3.91, Q 2.57, V 2.27
Y18: V 2.89, A 3.38, F 2.23, L 2.56, P 3.21, D 3.94, H 3.46, N 3.69, S 3.4
